From patent publication US20210238279A1 (Johns Hopkins, published 2021)
Substitutions are numbered along the chain they refer to.

T1: human ZnT8 over-expressed in HEK293 cells (human, UniProt Q8IWU4 1-369)
T1 construct: whole, on cells; Cells were fixed and permeabilized for immunofluorescence and flow cytometry (intracellular staining); The same id is used for the detergent lysates of over-expressing cells in the HTRF assay; also called ZnT8(+) HEK293 cells; HEK293 cells stably expressing human ZnT8
T1 sequence (looked up): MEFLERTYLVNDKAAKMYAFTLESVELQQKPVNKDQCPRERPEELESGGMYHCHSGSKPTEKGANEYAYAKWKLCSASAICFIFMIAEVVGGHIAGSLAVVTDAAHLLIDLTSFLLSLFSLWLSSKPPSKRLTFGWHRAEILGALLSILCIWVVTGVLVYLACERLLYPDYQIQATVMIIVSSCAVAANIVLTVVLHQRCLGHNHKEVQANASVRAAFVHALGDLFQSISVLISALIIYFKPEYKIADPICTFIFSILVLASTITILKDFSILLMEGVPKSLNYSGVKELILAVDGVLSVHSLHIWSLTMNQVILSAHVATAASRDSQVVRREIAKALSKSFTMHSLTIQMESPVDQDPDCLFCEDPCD

T2: human ZnT8-His (human, UniProt Q8IWU4-2 1-320, limits assumed)
T2 construct: Over-expressed in HEK293 cells, solubilized with DDM and immobilized on Ni-NTA plates (native or unfolded with 2% SDS), or SDS-denatured on immunoblots; also called human ZnT8 with C-terminal poly-histidine tag; not shown: C-terminal poly-histidine tag
T2 sequence (looked up): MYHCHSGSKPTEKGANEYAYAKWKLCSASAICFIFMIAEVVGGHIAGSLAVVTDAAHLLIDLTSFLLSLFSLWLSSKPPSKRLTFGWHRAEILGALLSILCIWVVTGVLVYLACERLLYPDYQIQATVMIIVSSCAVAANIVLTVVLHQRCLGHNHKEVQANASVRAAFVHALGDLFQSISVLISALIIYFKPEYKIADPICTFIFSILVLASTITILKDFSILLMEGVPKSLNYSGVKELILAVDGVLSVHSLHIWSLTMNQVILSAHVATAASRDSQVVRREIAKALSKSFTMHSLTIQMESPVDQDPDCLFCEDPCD

B1: mAb20 (antibody, V domains shown)
VH: QIQLVQSGPELKKPGETVKISCKASGYIFTNYPMHWVKQAPGKGLKWMGWINTYSGVPTHADDFKGRFAFSLETSANSAFLQINNLKNEDTATYFCTRSRITPTGGYAMDYWGQGTSVTVSS
VL: DVVMTQTPLSLPVSLGDQASISCRSSQSLVHSNGNTYLHWYLQKPGQSPNLLISKVSNRFSGVPERFSGSGSGTDFTLKISRVEAEDLGVYFCSQNTHVPWTFGGGTKLEIKR
notes: Mouse hybridoma mAb purified on protein A/G; In some assays it was labelled with Alexa Fluor 488 or terbium cryptate; also called monoclonal antibody mAb20; anti-ZnT8 mAb20
B2: mAb39 (antibody, V domains shown)
VH: QVQLQQPGAELVKPGASVKLSCKASGYSFTTYWMHWVKQRPGQGLEWVGDINPRNGRTNYNEKSKSKATLTVDISSSTVYMQVSSLTSEDSAVYYCAIWSGAMDYWGPGTSVTVSS
VL: B1 VL with A19P, R24K, S32N, N50K, S54Y, E65D, N96T, W101P
notes: Mouse hybridoma mAb purified on protein A/G; In some assays it was labelled with Alexa Fluor 555 or d2; also called monoclonal antibody mAb39; anti-ZnT8 mAb39

Legend:
[1] = target: T1, human ZnT8 over-expressed in HEK293 …; experiment: flow cytometry of fixed and permeabilized HEK293 cells, mean fluorescence against antibody concentration
Source text: FIG. 6A-6C. mAb binding affinity. (FIG. 6A) Representative confocal microscopy images of immunofluorescence staining of fixed and saponin-permeabilized HEK293 cells with mAb20 or mAb39 staining as indicated. ZnT8(+) or ZnT8(−) denotes HEK293 cells w/o ZnT8 over-expression. Red: mAb20 or mAb39 staining, blue: DAPI, scale bar: 5 um. (FIG. 6B) Histograms of flow cytometry counting events. Arrows indicate leftward shifts of the histogram as a result of mAb serial dilutions. (FIG. 6C) mAb binding to HEK293 cells w/o ZnT8 overexpression as indicated. Immunofluorescence intensities of mAb20 or mAb39 labeling in serial dilutions were obtained from (FIG. 6B). Solid lines are least-squares fits of the binding data to a one-component binding process.
Flow cytometry analysis. HEK293 cells w/o ZnT8 over-expression were fixed, permeabilized, and resuspended in PBS plus 5% BSA at a density of 1×10⁶/ml as described previously (43). Aliquots of 100 μl cell suspension were stained with mAb20 or mAb39 in 3-fold serial dilutions for 2 hours at RT, and then stained with Alexa fluor 647-conjugated donkey-anti-mouse secondary antibody in 1:1000 dilution with 5% BSA (Thermo Fisher Scientific, cat. #A31571). The labeled cells were analyzed immediately by flow cytometry. […]
Binding affinity. […] No mAb staining was detected in parental HEK293 cells without ZnT8 over-expression. […]

[2] = target: T2, human ZnT8-His; experiment: ELISA titration on ZnT8-His immobilized on Ni-NTA plate; apparent binding affinity, one-component fit; DDM-solubilized human ZnT8 immobilized to Ni-NTA plate via His-tag; mAb titration
Source text: FIG. 7A-7D. mAb binding specificities (FIG. 7A) mAb binding to ZnT8-His immobilized to Ni-NTA plate. Bound mAb20 (red) or mAb39 (magenta) was detected by an HRP-conjugated secondary antibody. Solid lines are least-squares fits of binding datapoints to a one-component binding process. Error bars are standard errors (n=8). (FIG. 7B) SDS-denatured mouse ZnT8-His (labeled as M) and human ZnT8-His (labeled as H) on immunoblots were detected by mAb20 or mAb39 as indicated. […] (FIG. 7C) Detection of endogenous human ZnT8 in EndoC-βH cells by mAb20 or […] immunoblotting. An equal amount of EndoC-βH lysate (5 μg total protein) was loaded to each lane. (FIG. 7D) Immunoblotting of HEK lysates with or with over-expression of a ZnT homolog as indicated. An approximately equal amount of total lysate protein (5 μg) was located to each lane, probed by either mAb20, mAb39, or anti-FALG antibody as indicated. FIG. 8. HTRF response to human ZnT8, mouse ZnT8 and human ZnT3.
Binding specificities. […] Of note, the epitope-masking effect of ZnT8 immobilization weakened the apparent binding affinities of both mAbs as compared to the affinities determined by flow-cytometry, and such a weakening effect was more pronounced for mAb39, probably due to a closer proximity of the mAb39 epitope to the C-terminal His-tag. Next, we compared the immunoreactivities of mAbs to denatured ZnT8.

| Binder | EC50 (read off the curve) [1] | Kd [2] |
| --- | --- | --- |
| B1 | ~100 ng/mL | 2.5 nM |
| B2 | ~100 ng/mL | 17.6 nM |
